Results as given in patent publication US20240150805A1, “Glycosylated Opioids” (River Stone Biotech ApS, priority 2021, published 2024).

Test: In vitro glucosylation of oripavine and nororipavine by purified UGTs
Type: biochemical
Details: for preference for nororipavine glucosylation compared to oripavine glucosylation: purified UGT, 500 μM substrate, overnight at 30° C., HPLC
Method: Glucosylation samples of a 20 μL total reaction volume for each UGT to be tested were prepared in 96-well microtiter plates as follows:
The microtiter plate was sealed with an adhesive seal, spun shortly and the glucosylation samples were incubated overnight at 30° C. After incubation, glucosylation reaction was terminated by adding 3 volumes (60 μL) of ice-cold 100% methanol the reaction volume and mixing well, followed by centrifugation of the plate at 3000 rpm for 5 min at 4° C. and analysis by HPLC.
The 72UGTs of Table 5 were tested in vitro to using the test setup of example 3 identify those having having specificity toward nororipavine.

[1] = 72UGTs, test setup of example 3, FIG. 8

B1: PWA37695: subfamily 73 UGT (protein, listed as Artemisia annua)
chain: MVAPSTELHFVMFPLMAQGHIVPMVDIARILAEKGATVTIFATPLVANRFRPVISRAIEAKLKIQILELELQVAKVGLPEGCQSFEKLPSSDSSAKLFAAMDLLEQPAEDLVRKLSPPPDCIISDFLFPWTTDMARRFNIPRLVFHGPGCFWLVCMHAVFSSDKFKTIKLEEKFMLPGLPDQVEVTKLQITGTKEIKPEQMGFWVRATEAEKAAYGTVVHTFYELEPEYVKEYSKVKDTKVWCIGPVALSNKANLDIAERGNKAAINEHDCLKWLDEKEPGSVFYVCLGSITRLSTEQAIEIALGLESTNQPFLWFLRNKTQELEKWFSEVGFEERVKDRGLIVHGWAPQILILSHCAVGGFLTHCGWNSTLEGVSFGVPMVTWPHFADQFLNETFIVEILKIGVRIGVDIPELYGEEDKLEALVKKEDVKRAVECLMDKEDKEAKQRRKRARKLAEMAKRAMAEGGSSYVNVSSLIQDITEFRNTQRLNRLHV
preference for nororipavine glucosylation compared to oripavine glucosylation: very strong preference for oripavine glucosylation

B2: Qs72S_1: subfamily 72 UGT (glycosyltransferase) from Quercus suber (protein)
chain: MEQKPHIALLPSPGMGHLIPLVEFAKQFVLHHDFHITCIIPVLGSPSKAMKAVLQALPTTIDHVFLPPVILEEEEIKGLKFEVQTILTLTRSLPPLREVLKTTRFSAFVVDPFGIDALDIAKELNISPYIFFPSNAFALSLIFHLPKLDETVSCEYRDLPEPLKLPGCIPIHGRDLIEPVQDRTSELYKMFLRNAKRFRLAEGIIVNTFMELEGSAIKALLDEEAKNLPLYPIGPIQSGSSNLQVDKSVSDCLRWLDNQPHGSVLFVCFGSGGTLSYDQTNELALGLELSGQKFLWVVRTPNNESADAAYLSDQILDNNPLDFLPKGFVERTEGQGLAVPSWAPQAQVLSHGSTGGFLTHCGWNSTLESIMQGIPLIAWPLYAEQKMNAPLLAEDLKVALRPKTNKSGLIDQEEIAKVVKGLMIGEEGKKVYNRMKDIKMAAEKALSADGSSTKALSELASQWKNHPGF
modifications: Quercus suber
notes: subfamily 72 UGT (glycosyltransferase) from Quercus suber
glucosylation activity [1]: high activity
specificity for nororipavine compared to oripavine [1]: particularly high specificity
preference for nororipavine glucosylation compared to oripavine glucosylation: particularly strong preference for Nororipavine glucosylation

B3: SrUGT71E1: subfamily 71 UGT from Stevia rebaudiana (protein, listed as Stevia rebaudiana)
chain: MSTSELVFIPSPGAGHLPPTVELAKLLLHRDQRLSVTIIVMNLWLGPKHNTEARPCVPSLRFVDIPCDESTMALISPNTFISAFVEHHKPRVRDIVRGIIESDSVRLAGFVLDMFCMPMSDVANEFGVPSYNYFTSGAATLGLMFHLQWKRDHEGYDATELKNSDTELSVPSYVNPVPAKVLPEVVLDKEGGSKMFLDLAERIRESKGIIVNSCQAIERHALEYLSSNNNGIPPVFPVGPILNLENKKDDAKTDEIMRWLNEQPESSVVFLCFGSMGSFNEKQVKEIAVAIERSGHRFLWSLRRPTPKEKIEFPKEYENLEEVLPEGFLKRTSSIGKVIGWAPQMAVLSHPSVGGFVSHCGWNSTLESMWCGVPMAAWPLYAEQTLNAFLLVVELGLAAEIRMDYRTDTKAGYDGGMEVTVEEIEDGIRKLMSDGEIRNKVKDVKEKSRAAVVEGGSSYASIGKFIEHVSNVTI
preference for nororipavine glucosylation compared to oripavine glucosylation: preference for glucosylation of nororipavine

B4: XP_030967178: subfamily 72 UGT, sequence homolog of Qs72S_1 (protein, listed as Quercus lobata)
chain: MEQKPHIALLPSPGMGHLIPLVELAKLLLLHHDFHITCIIPVLGSPSKAMKAVLQALPTSIDNVFLPPVILEEEEIKGLKLEVQAMLTLTRSLPPLRDVLKSTRFSAFVVDPFGIDALDIAKELNISPYIFFSSNAFALSLVLHLPKLDETVPCEYRDLPEPVKLPGCIPIHGRDLIEPVQDRTSELYKMFLTNAKRYRLAEGIIVNTFMELEGSAIKAMLEEEAKNLPLFPVGPIQSGSSNQVDKLESDCLSWLDNQPHGSVLFVCFGSGGTLSYEQTNELALGLELSGQKFIWVVRTPNNESADATYLSDQNLGDNPLAFLPKGFVERTKGQGLVVPLWAPQAQVLSHGSTGGFLTHCGWNSTLESIMQGIPLIVWPLFAEQKMNAALLAEDLKVALRPKTDKNGLIDREEIAKVVKGLMVGEEGKKVHNRMEDIKIAAEKALSADGSSTKALSKLATQWKNHPDF
specificity for nororipavine compared to oripavine [1]: particularly high specificity
preference for nororipavine glucosylation compared to oripavine glucosylation: particularly strong preference for Nororipavine glucosylation

B5: KAF3968554: subfamily 72 UGT, sequence homolog of Qs72S_1 (protein, listed as Castanea mollissima)
chain: MEQKPHIGILPSPGMGHLIPLVEFAKLLVHHHDFNITCIIPVLGSPSKAMKAVLHALPTTIDHVFLPPVILEEEEMKGPRFEVQTILTLTRSLPPLRDVLKSTRFSAFVVDPFGIDALDIAKELNISPYIFFPTNAFALSLIFHLPKLDETVSCEYRDLPEPLKLPGCIPIHGRDLAEPFQNRTSESYKMFLRIAKRFRLAEGIIVNTFMGLEGSAIKALLEEEAKNLPLYPVGPIQSGSSNQVEESDCLRWLGNQPHGSVLFVCFGSGGTLSYDQTNELALGLELSGQKFLWVVRTPNNESADAAYLSDQTLYNNPLAFLPKGFVERTEGQGLAVPSWAPQAQVLSHGSTGGFLTHCGWNSSLESIMQGIPLIAWPLYAEQKMNAVLLAEDLKVALRPKTNKNGLIDREEIAKVVKGLMDGEEGKKVRNRMKDIKIAAEKALNVDGSSTKTLSKLASKWKNHSSF
preference for nororipavine glucosylation compared to oripavine glucosylation: particularly strong preference for Nororipavine glucosylation

B6: XP_023876189: subfamily 72 UGT, sequence homolog of Qs72S_1 (protein)
chain: MEQKPHIAILPSPGMGHLIPFVEFAKLLLLHHDFHITCIIPTIGSPSKAMREVLQALPTSIDHVFLPPVSLEELGGVKPGIQITLTMIRSLPPLREVLTSLVATTRLVALVVDLFGTDALDVAKELNVSPYIFYPTNAMVVSLVLHLPKLDETVSCEYRDLPEPVKLPGCVPIHGRDLLDPIQDRTTELYKLFLRGAKWLRLVEGIIVNTFMELDGNVIKALEDEEAKSGTIYTIGPIIQSSSTKHVEGSDGLRWLDNQPRGSVLFVCFGSGGTLSYDQMKELALGLELSKQKFLWVVRSPNNELAQAAYFSDQTLDNNPLSFLPVGFIERTKEQGLVVPSWAPQAQVLSHDSTGGFLSHCGWNSTLESIMQGIPLIAWPLFAEQRMNALLLTEDLKVALRPKANEKNLVDREEIAKVIKSLMVGEDGKKIHSRMKDLKIAAEKALSPNGPSTKALADLASHWTNQSNS
modifications: Quercus suber
specificity for nororipavine compared to oripavine [1]: particularly high specificity
preference for nororipavine glucosylation compared to oripavine glucosylation: particularly strong preference for Nororipavine glucosylation

B7: XP_023905565: subfamily 72 UGT, sequence homolog of Qs72S_1 (protein)
chain: MEQKPHIALLPSPGMGHLVPLVELAKLLLLHHDFHITCIIPVLGSPSKAMKAVLQALPTSIDHVFLPPVILEEEEIKGLKLEVQAMLTLTRSLPPLRDVLKSTRFSAFVVDPFGIDALDIAKELNISPYIFFPSNAFALSLVLHLPKLDETVSCEYRDLPEPIKLPGCITIHGRDLLEPVQDRTSELYKMFLSNTKRYRLAEGIIVNTFMELEGSAIKALLEEEAKNLPLFPVGPIQSGSSNQVDKSESDCLRWLDNQPHGSVLFVCFGSGGTLSYDQTNELALGLELSGQKFIWVVRTPNNESADATYLSDQTLGNNPLAFLPKGFVERTKGQGLVVPFWAPQAQVLSHGSTGGFLTHCGWNSTLESIMQGIPLIVWPLFAEQKMNAALLAEDLKVALRPKTNKNGRIDREEITKVVKGLMVGEEGKKVRNRMKDIKIAAEKALSADGSSTKALSKLATQWKNHSDF
modifications: Quercus suber
preference for nororipavine glucosylation compared to oripavine glucosylation: particularly strong preference for Nororipavine glucosylation
